Experimental data: patent publication US20240390418A1 (MINERVA BIOTECHNOLOGIES, published 2024)
One block for each binder: values may come before it.

B2: C-10 peptide (peptide)
peptide: GTINVHDVETQFNQYKTEAASRYNLTISDVSVSDV
notes: also called PSMGFR C-10; PSMGFR minus 10 amino acids from the C-terminus

Tests used:
[1] = target: T1, PSMGFR peptide; assay: ELISA, peptide on plate
T1 construct: also called MUC1* peptide
T1 peptide: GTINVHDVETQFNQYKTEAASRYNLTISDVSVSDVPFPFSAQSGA

[2] = target: T2, N+20/C-27 peptide; assay: ELISA, peptide on plate (FIG. 66)
T2 peptide: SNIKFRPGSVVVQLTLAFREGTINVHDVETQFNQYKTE

[3] = target: T3, N+9/C-9 peptide; assay: ELISA, peptide on plate (FIG. 66)
T3 peptide: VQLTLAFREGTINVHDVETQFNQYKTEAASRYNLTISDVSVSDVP

[4] = target: T4, N-10 peptide; assay: ELISA, peptide on plate (FIG. 69)
T4 construct: also called PSMGFR N-10; PSMGFR minus 10 amino acids from the N-terminus
T4 peptide: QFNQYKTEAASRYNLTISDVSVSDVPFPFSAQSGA

[5] = target: B2; assay: ELISA, peptide on plate (FIG. 69)
[6] = target: T5, N-19 peptide; assay: ELISA, peptide on plate (FIG. 69)
T5 peptide: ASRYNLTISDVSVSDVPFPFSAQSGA

[7] = target: T6, N-26 peptide; assay: ELISA, peptide on plate (FIG. 69)
T6 peptide: ISDVSVSDVPFPFSAQSGA

[8] = target: T7, N-30 peptide; assay: ELISA, peptide on plate (FIG. 69)
T7 peptide: SVSDVPFPFSAQSGA

[9] = target: T8, N-10/C-5 peptide; assay: ELISA, peptide on plate (FIG. 69)
T8 peptide: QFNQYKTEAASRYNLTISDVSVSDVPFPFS

[10] = target: T9, N-19/C-5 peptide; assay: ELISA, peptide on plate (FIG. 69)
T9 peptide: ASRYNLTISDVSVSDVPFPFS

[11] = target: T10, MUC1* expressed on HCT-116 cells transfected with MUC1* (extra cellular domain is just the PSMGFR sequence) (Homo sapiens (Human), UniProt P15941 1110-1255); assay: denaturing Western blot of cell lysates, linear epitope test (FIG. 74)
T10 construct: In Western blot rows the same protein stood denatured in cell lysate; also called HCT-MUC1*; HCT-FLR
T10 sequence: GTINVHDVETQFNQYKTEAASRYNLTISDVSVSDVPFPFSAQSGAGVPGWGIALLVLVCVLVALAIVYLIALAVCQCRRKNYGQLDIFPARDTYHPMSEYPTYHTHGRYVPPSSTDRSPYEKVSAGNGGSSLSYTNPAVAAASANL
Description: Antibodies were tested to determine whether they recognize a linear or a conformational epitope. Only antibodies that recognize a linear epitope work in Western blots when using denaturing gels. […] The antibodies tested for comparison are MNC2 and MNE6, which were known to only recognize a conformational epitope, SDIX which is a polyclonal antibody raised against PSMGFR and VU4H5, which is a commercially available monoclonal antibody that recognizes the tandem repeats of full-length MUC1 (FIG. 71A-71D). […] The SDIX polyclonal antibody recognizes HCT-MUC1* but not full-length MUC1 and VU4H5 only recognizes full-length MUC1. These same antibodies were also tested for their ability to work in Western blots of two breast cancer cell lines 1500, aka Zr-75-1, and T47D cells and show the same binding pattern (FIG. 71E-71H).
Antibodies that were raised against the PSMGFR peptide were tested the same way in Western blots (FIG. 72A-72P). […] Antibodies that were raised against the N+20/C-27 peptide were tested the same way in Western blots (FIG. 73A-73J). […] Antibodies 1E4 and 45C11 may recognize a conformational epitope. Antibodies that were raised against the N+9/C-9 peptide were tested the same way in Western blots (FIG. 74A-74H). […] These antibodies may recognize a conformational epitope.

[12] = target: T11, NME7AB (Homo sapiens (Human), UniProt Q9Y5B8 92-376); assay: ELISA, peptide on plate (FIG. 2A)
T11 construct: NME7A in the text appears to be NME7AB; also called NM23-H7; NME7A
T11 sequence: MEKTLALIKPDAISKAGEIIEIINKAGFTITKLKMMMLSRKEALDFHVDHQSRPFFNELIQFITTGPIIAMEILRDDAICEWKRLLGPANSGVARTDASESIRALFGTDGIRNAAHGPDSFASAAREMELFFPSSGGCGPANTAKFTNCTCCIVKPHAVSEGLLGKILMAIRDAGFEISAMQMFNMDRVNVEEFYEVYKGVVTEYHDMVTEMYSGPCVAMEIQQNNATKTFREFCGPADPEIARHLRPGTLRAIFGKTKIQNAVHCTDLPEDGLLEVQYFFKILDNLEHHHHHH
Description: (§1) FIGS. 2A-2I show results of ELISA assays. MUC1* peptides PSMGFR, PSMGFR minus 10 amino acids from the N-terminus aka N-10, or PSMGFR minus 10 amino acids from the C-terminus, aka C-10 are immobilized on the plate and the following are assayed for binding: NME7-AB (FIG. 2A), MNC2 monoclonal antibody (FIG. 2B), MNE6 monoclonal antibody (FIG. 2C), or dimeric NME1 (FIG. 2D). […] MUC1* peptides PSMGFR minus 10 amino acids from the N-terminus aka N-10, or PSMGFR minus 10 amino acids from the C-terminus, aka C-10, are immobilized on the plate and the following are assayed for binding: MNC3 (FIG. 2E) and MNC8 (FIG. 2F).

[13] = target: T12, dimeric NME1 (Homo sapiens (Human), UniProt P15531 1-152, limits assumed); assay: ELISA, peptide on plate (FIG. 2D)
T12 construct: also called NM23-H1 dimers; dimeric NM23-H1
T12 sequence (P15531 whole entry): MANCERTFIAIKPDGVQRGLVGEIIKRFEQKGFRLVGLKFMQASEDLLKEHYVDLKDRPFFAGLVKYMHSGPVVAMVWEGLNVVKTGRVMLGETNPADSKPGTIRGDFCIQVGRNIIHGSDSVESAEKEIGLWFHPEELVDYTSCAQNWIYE
Description: as §1

[14] = target: B2; assay: peptide ELISA
[15] = target: T10, MUC1* expressed on HCT-116 cells …; assay: flow cytometry (FIG. 4D-4F)
[16] = target: T1, PSMGFR peptide; assay: ELISA, peptide on plate (FIG. 2C)
[17] = target: T2, N+20/C-27 peptide; assay: ELISA, peptide on plate (FIG. 63)
Description: (§2) ELISA assays were performed to determine if, in addition to recognizing their immunizing peptide, they recognized PSMGFR, N-10 or C-10. In addition, they were tested for their ability to bind to N+20/C-27, N+9/C-9. We first did the ELISA assay on our set of reference antibodies, MNC2, MNE6, which we know are cancer-specific plus MNC3, which we know recognizes stem cells and progenitor cells (FIG. 63A-63B). None of the reference antibodies bound to the N+20/C-27 peptide. MNC2 and MNE6 cannot bind to PSMGFR peptides with 27, 10 or 9 C-terminal deletions, however, MNC3 binds to C-10 and to N+9/C-9 peptides.

[18] = target: T3, N+9/C-9 peptide; assay: ELISA, peptide on plate (FIG. 63)
Description: as §2

[19] = target: T4, N-10 peptide; assay: ELISA, peptide on plate (FIG. 2B-2C)

binding result [1]: no binding | binding result [2]: no binding | binding result [3]: binds | binding result [4]: no binding | binding result [5]: no binding | binding result [6]: no binding | binding result [7]: no binding | binding result [8]: no binding | binding result [9]: no binding | binding result [10]: no binding | binding result [11]: no binding
B1: monoclonal antibody 8A9 (antibody, V domains shown)
VH: EVELVESGGGLVQPGGSLRLSCATSGFTFTDHYMSWVRQPPGKALEWLGFIRNKANGYTTEYSASVKGRFTISRDNSQSILYLQMKTLRTEDSATYYCARPSDWDSWFAYWGQGTLVTVSA
VL: DVLMTQTPLSLPVSLGDQASISCRSSQSIVHSNGNTYLDWYLQKPGQSPKLLIYRVSNRFSGVPDRFSGSGSGTDFTLKISRVEAEDLGLYYCFQGSHVPWAFGGGTKLEIK
notes: Raised against the N+9/C-9 peptide; also called N+9/C-9 antibody 8A9

Binder: B2
binding result [12]: no binding | binding result [13]: no binding

binding result [14]: no binding | binding result [15]: binds | binding result [16]: binds | binding result [17]: no binding | binding result [18]: no binding (tested: 10 ug/mL or 1 ug/mL) | binding result [19]: binds
B3: mouse monoclonal antibody MNE6 (antibody, V domains shown)
VH: EVKVVESGGDLVKPGGSLKLSCVVSGFTFSRYGMSWVRQTPGKRLEWVATISGGGTYIYYPDSVKGRFTISRDNAKNTLYLQMSSLKSEDTAMYHCTRDNYGRNYDYGMDYWGQGTSVTVSS
VL: QIVLTQSPAIMSASPGEEVTLTCSATSSVSYIHWFQQRPGTSPKLWIYSTSNLASGVPVRFSGSGYGTSYSLTISRMEAEDAATYYCQQRSSSPFTFGSGTKLEIK
notes: Mouse monoclonal raised against the PSMGFR peptide; also called Min-E6
